The results in this text go back to US20260043817A1 (UNIVERSITY OF TOKYO, published 2026).

This assay concerns the target T1, HA-tagged Fluc-DM (Fluc-HA-DM) (firefly, UniProt P08659 1-550 = luciferase).
T1 construct: Model misfolded (structurally abnormal) protein, co-expressed in HeLa cells; Derived from the Addgene plasmid FlucDM-HA-GFP11-N1; also called R188Q/R261Q double mutant of firefly luciferase; aggregated mutant luciferase; not shown: HA tag
The assay is described as follows: co-immunoprecipitation with anti-FLAG M2 gel from HeLa lysates, immunoblot.

B1: FLAG-LONRF2-LonSBm (P5A) (enzyme)
chain: MSPEPVPPPPPPQCPGCDRAEPIAQRLEEGDEAFRAGDYEMAAELFRSMLAGLAQPDRGLCLRLGDALARAGRLPEALGAFRGAARLGALRPEELEELAGGLVRAVGLRDRPLSAENPGGEPEAPGEGGPAPEPRAPRDLLGCPRCRRLLHKPVTLPCGLTVCKRCVEPGPARPQVRRVNVVLSGLLEKCFPAECRLRRLAGQARSLQRQQQPEAALLRCDQALELAPDDNSLLLLRAELYLTMKNYEQALQDASAACQNEPLLIKGHQVKAQALSGLGRSKEVLKEFLYCLALNPECNSVKKEAQKVMCEVLFSATANVHENLTSSIQSRLKAQGHSHMNAQALLEEGDAGSSENSSEKSDMLGNTNSSVLYFILGLHFEEDKKALESILPTAPSAGLKRQFPDDVEDAPDLNAPGKIPKKDLSLQRSPNSETEESQGLSLDVTDFECALCMRLLFEPVTTPCGHTFCLKCLERCLDHAPHCPLCKDKLSELLASRNFNITVLAEELIFRYLPDELSDRKRIYDEEMSELSNLTRDVAIFVCAMAFATVPCALHVFEPRYRLMIRRCMETGTKRFGMCLSAEHAGLSEYGCMLEIKDVRTFADGSSVVDAIGISRFRVLSHRHRDGYNTADIEYLEDEKVEGPEYEELAALHDSVHQQSVSWFASLQDRMKEQILSHFGVMPDREPEPQSNPSGPAWSWWILAVLALERKAQLAILGMTSLKERLLAIRRILVIITRKMNSRQELANARERNN
notes: not shown: FLAG tag
On to B1, for which the binding result is recorded as “no binding”.
